# Residue numbers refer to the chain shown, from its start. Names may count otherwise.
# B1: T158N (protein)
# chain: MQLRNPELHLGCALALRFLALVSWDIPGARALDNGLARTPTMGWLHWERFMCNLDCQEEPDSCISEKLFMEMAELMVSEGWKDAGYEYLCIDDCWMAPQRDSEGRLQADPQRFPHGIRQLANYVHSKGLKLGIYADVGNKTCAGFPGSFGYYDIDAQNFADWGVDLLKFDGCYCDSLENLADGYKHMSLALNRTGRSIVYSCEWPLYMWPFQKPNYTEIRQYCNHWRNFADIDDSWKSIKSILDWTSFNQERIVDVAGPGGWNDPDMLVIGNFGLSWNQQVTQMALWAIMAAPLFMSNDLRHISPQAKALLQDKDVIAINQDPLGKQGYQLRQGDNFEVWERPLSGLAWAVAMINRQEIGGPRSYTIAVASLGKGVACNPACFITQLLPVKRKLGFYEWTSRLRSHINPTGTVLLQLENTMQMSLKDLL
# B2: T158S (protein)
# chain: B1 chain with N158S
# B3: D161V (protein)
# chain: B1 chain with N158T, D161V
# B4: V164A (protein)
# chain: B1 chain with N158T, V164A
# B5: D161H (protein)
# chain: B1 chain with N158T, D161H
# B6: W162S (protein)
# chain: B1 chain with N158T, W162S
# B7: F159V (protein)
# chain: B1 chain with N158T, F159V
# B8: A160V (protein)
# chain: B1 chain with N158T, A160V
# B9: A160G (protein)
# chain: B1 chain with N158T, A160G
# B10: D161Y (protein)
# chain: B1 chain with N158T, D161Y
# B11: F159Y (protein)
# chain: B1 chain with N158T, F159Y
# B12: A160T (protein)
# chain: B1 chain with N158T, A160T
# B13: F159L (protein)
# chain: B1 chain with N158T, F159L
# B14: D161N (protein)
# chain: B1 chain with N158T, D161N
# B15: A160S (protein)
# chain: B1 chain with N158T, A160S
# B16: V164L (protein)
# chain: B1 chain with N158T, V164L
# B17: V164I (protein)
# chain: B1 chain with N158T, V164I
# B18: F159I (protein)
# chain: B1 chain with N158T, F159I
# Tested on: mutant form of α-Gal A expressed in HEK-293 cells
# Assay: HEK assay (GLP HEK / Migalastat Amenability Assay): α-Gal A activity in lysates of transiently transfected HEK-293 cells incubated with or without 10 μM migalastat
# Format: cell-based, human
# Conditions: for Absolute increase (% WT): 10 μM migalastat versus baseline; for Relative increase: 10 μM migalastat α-Gal A activity relative to baseline; for 10 μM migalastat α-Gal A activity (% WT): 5 days; for 10 μM migalastat α-Gal A activity (% WT) / Baseline α-Gal A activity (% WT): percentage of baseline wild-type α-Gal A activity; for 10 μM migalastat α-Gal A activity (% WT) / Baseline α-Gal A activity (% WT) / Baseline α-Gal A activity / 10 μM migalastat α-Gal A activity: mean ± SEM; for Baseline α-Gal A activity (% WT): absence of migalastat; for Baseline α-Gal A activity / 10 μM migalastat α-Gal A activity: lysates of HEK-293 cells transfected with the mutant form; for Baseline α-Gal A activity: incubated 5 days in the absence of migalastat; for 10 μM migalastat α-Gal A activity: incubated 5 days with 10 μM migalastat
# Method in brief: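 Activity reported as 4-MU released (nmol/mg/hr), mean±SEM, from lysates of transiently transfected HEK-293 cells expressing mutant α-Gal A, cultured with or without 10 μM migalastat.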
Molecule,Absolute increase (% WT),Relative increase,10 μM migalastat α-Gal A activity (% WT),Baseline α-Gal A activity (% WT),Baseline α-Gal A activity [nmol/mg/h],10 μM migalastat α-Gal A activity [nmol/mg/h]
B1,12.8,3.1,18.2 ± 2,5.4 ± 0.2,1906 ± 106,5991 ± 499
B2,19.8,1.3,99.1 ± 5.6,79.3 ± 4,31043 ± 2073,39060 ± 2937
B3,16.0,1.4,59.7 ± 2.7,43.7 ± 1.7,13728 ± 1344,19117 ± 2241
B4,7.5,1.3,32 ± 2.2,24.5 ± 1.8,6491 ± 691,8468 ± 832
B5,15.5,1.2,77 ± 3.8,61.5 ± 2.9,21949 ± 2587,26457 ± 2512
B6,9.2,4.6,11.8 ± 0.8,2.6 ± 0.2,653 ± 38,3019 ± 210
B7,29.8,1.6,80.7 ± 4.8,50.9 ± 2.9,16474 ± 1048,26241 ± 1907
B8,21.9,1.4,66 ± 4.8,44.1 ± 2.7,15511 ± 1847,22124 ± 1885
B9,19.0,1.4,54.1 ± 5.3,35.1 ± 3.7,13634 ± 2705,19647 ± 3137
B10,32.1,1.9,63.1 ± 4.6,31 ± 2.5,11060 ± 1571,21231 ± 2136
B11,22.4,3.9,30.1 ± 1.7,7.7 ± 0.7,2573 ± 301,10052 ± 825
B12,31.3,1.4,90.9 ± 8.1,59.6 ± 3.5,20193 ± 1713,29082 ± 1980
B13,28.0,1.4,103.6 ± 10.7,75.6 ± 8.4,22840 ± 1245,31357 ± 1408
B14,14.1,1.2,68.7 ± 4.9,54.5 ± 4.3,19553 ± 2838,24298 ± 3201
B15,29.9,1.5,85.9 ± 6.3,56 ± 3.1,18308 ± 685,27775 ± 1478
B16,35.0,1.7,86.2 ± 5.2,51.2 ± 3.8,22055 ± 1619,36486 ± 1952
B17,41.9,1.9,87.1 ± 8.2,45.1 ± 3.4,12164 ± 1271,23219 ± 2640
B18,24.6,1.4,89.3 ± 4.2,64.7 ± 3.5,21543 ± 1754,29402 ± 1960

# — patent publication US11833164B2, “Methods of treating Fabry disease in patients having a mutation in the GLA gene” (Amicus Therapeutics, Inc., priority 2019, dated 2023)
